Seven molecules from patent publication US20240002516A1 (4B TECHNOLOGIES SUZHOU, published 2024) can be followed below.

Like-named read-outs stand apart in the source and are kept apart here.

Assay [1] addresses T1, human TrkA on CellSensor TrkA-NFAT-bla CHO-K1 cells (human, UniProt P04629 33-796). Kind of assay: cell-based or functional assay.
The target in assay [2] is T2, extracellular domain (ECD) of human TrkA protein, N-terminal flag tag and C-terminal His tag (PHA) (human, UniProt P04629 33-423).
T2 construct: Made in 293-F cells and purified by IMAC; also called TrkA ECD protein; TrkA (ECD); not shown: flag tag at the N-terminus (after the signal peptide); His tag at the C-terminus
Kind of assay: indirect ELISA on coated PHA (human TrkA ECD, 1 ug/mL), anti-mouse IgG-HRP, OD450. The protocol:
Hybridoma supernatants were initially screened with human TrkA by indirect ELISA. Briefly, purified PHA was diluted to a final concentration of 1 μg/mL in PBS buffer. 100 μL of the diluted antigen was added to each well of a 96-well plate, and incubated at 4° C. overnight. The plates were washed with PBST (PBS comprising 0.05% Tween-20, pH 7.4) for three times, then 200 μl/well of 2% bovine serum albumin (BSA) diluted in PBST was added and incubated at room temperature for 2 hours for blocking. The blocking solution was removed, and the plate was washed 3 times with 300 μl PBST. The diluted solutions of primary and secondary antibodies, along with substrate solution was prepared. 100 μl of diluted primary antibody was pipetted in each well and was incubated for 1 hour at room temperature. The content in the wells was removed and washed for 3 times with 300 μl PBST buffer. PBS was removed from the plates. 100 μl of diluted Peroxidase-AffiniPure Goat Anti-Mouse IgG was added in each well and incubated for 1 hour at 37° C. The content in the wells was removed and the wells were washed for 3 times with 300 μl PBST. 100 μl of TMB substrate solution was added to the wells. After sufficient color development, 100 μl of stop solution was added to the wells to terminate the reaction. Read the absorbance (OD: 450) of each well with a microplate reader and the data were analyzed.
On the technique in general: An ELISA detects its analyte on a solid surface through an enzyme-linked reagent.

In assay [3] the target is T1, human TrkA on CellSensor TrkA-NFAT-bla …. Kind of assay: FACS on CellSensor TrkA-NFAT-bla CHO-K1 cells (human TrkA), APC goat anti-mouse IgG; y axis without label. The protocol: (§1) The ELISA-positive antibody producing clones were further verified by fluorescence-activated cell sorting (FACS) using a conventional method. Briefly, CellSensor® TrkA-NFAT-bla CHO-K1 cells (cells overexpressing human TrkA) were stained with anti-TrkA antibody in U-bottom 96-well plates. The cells were resuspended to 2×10⁶ cells/ml in ice cold PBS. The diluted solutions of primary and secondary antibodies were prepared, and 100 μl of the diluted primary antibody was added in each well, and incubated for 1 hours at 4° C. in the dark. The cells were washed for 2 times by centrifugation at 2500 rpm for 3 min and resuspended in ice cold PBS. The APC Goat anti-Mouse IgG was diluted in cold PBS at the […] and then the cells were resuspended in 100 μl of this solution. The cells were washed for 2 times by centrifugation at 2500 rpm for 3 min and resuspended in 100 μl ice cold PBS. The cell suspension was stored immediately at 4° C. in the dark. The cells were analyzed on the flow cytometer as soon as possible.

For assay [4] the target is unchanged. Kind of assay: FACS on CellSensor TrkA-NFAT-bla CHO-K1 cells (human TrkA), APC goat anti-mouse IgG. The protocol:
as §1

For assay [5] the target is unchanged. The assay is described as follows: cell-based or functional assay. This is another data set of the same source.
The target in assay [6] is T2, extracellular domain (ECD) of human …. The assay is described as follows: BLI (Octet Red384), His-tagged TrkA ECD captured on Anti-Penta-HIS (HIS1K) biosensor, pAb01 as second antibody (90 s) after PHD48. A general note: Biolayer interferometry detects binding as a change in optical thickness at a sensor tip.
Protocol: A bio-layer interferometry (BLI) method-based competition assay was performed on Octet Red384. Briefly, Anti-Penta-HIS (HIS1K) Biosensor (Fortebio) was put in PBS with 0.1% w/v bovine serum albumin and 0.05% Tween-20 (assay buffer) for a minimum of 10 min in the pre-wetting plate. The TrKA ECD protein at 100 nM in assay buffer was captured on the sensor to obtain a capture level of 0.3˜1 nm. The loaded biosensors were then equilibrated with an assay buffer for a minimum of 30s followed by binding of the first antibody for 90s. After the second equilibration, the second antibody was loaded for 90s.
Assay [7] has as its target T1, human TrkA on CellSensor TrkA-NFAT-bla …. The assay is described as follows: cell-based or functional assay. The source holds these as a separate data set.
Assay [8] shares this target. The assay is described as follows: FACS on cells expressing human TrkA (FIG. 4A).
The target of assay [9] is T2, extracellular domain (ECD) of human …. The assay is described as follows: BLI (Octet Red384), antibody captured on anti-human Fc AHQ tips, antigen 100 nM. The protocol: (§2) The bio-layer interferometry (BLI) method was used to determine the affinities of the antibodies, employing Octet Red384. Briefly, anti-human Fc-coated biosensor AHQ tips (ForteBio) were put into PBS with 0.1% w/v bovine serum albumin and 0.05% Tween-20 for a minimum of 10 min in the pre-wetting plate. The purified antibodies (100 nM in PBS with 0.1% bovine serum albumin and 0.05% Tween-20 (assay buffer)) were captured on AHQ biosensors (ForteBio) at a level of about 1 nm. The loaded biosensors were washed with an assay buffer to remove any unbound protein. Then, the association rates, dissociation rates and response were measured, using an antigen of 100 nM (in PBS with 0.1% bovine serum albumin and 0.05% Tween-20).

Assay [10] has the same target. Kind of assay: BLI (Octet Red384), as in Example 4. The protocol: as §2
Two rounds of humanizations were further performed. […] In the second round, many other variants were further constructed (including several mutations in the CDR sequences). Quickchange based site-directed mutagenesis or overlap PCR were performed to create expression plasmid of new versions of 2nd round humanized antibodies. All recombinant antibodies were expressed and purified as described in Example 1, then measured antigen binding affinity using BLI technology with the Octet Red384 instrument as mentioned above. To compare the functional activity of humanized antibodies with chimeric antibodies, NFAT assay was also performed.

For assay [11] the target is unchanged. The assay is described as follows: SPR (BIAcore T200), antibody on protein G chip, PHA 0.625-20 nM injected. The protocol:
The binding kinetics and affinities of the humanized antibodies were determined using a BIAcoreT200™ SPR system. Approximately 30 RU of the humanized antibody was immobilized on a protein G sensor chip and serial 2-fold dilutions of the PHA (0.625-20 nM) in 1×HBS-EP+ buffer were injected over the antibody-bound surface at a flow rate of 30 μl/min.
(In general: In SPR one partner is held on a chip, and binding of the other changes the refractive index at the surface.)

For assay [12], the target named is T1, human TrkA on CellSensor TrkA-NFAT-bla …. Kind of assay: FACS on cells expressing human TrkA (FIG. 5A).

Broadly, the EC50 is the concentration at which the effect is half-maximal. One may read the Kd as a measure of binding affinity in units of concentration. The koff is the first-order rate constant of dissociation. As a reminder, the kon is the second-order rate constant of association. Higher therefore signals fast association.

T1 sequence (P04629 33-796 limits assumed, form in doubt): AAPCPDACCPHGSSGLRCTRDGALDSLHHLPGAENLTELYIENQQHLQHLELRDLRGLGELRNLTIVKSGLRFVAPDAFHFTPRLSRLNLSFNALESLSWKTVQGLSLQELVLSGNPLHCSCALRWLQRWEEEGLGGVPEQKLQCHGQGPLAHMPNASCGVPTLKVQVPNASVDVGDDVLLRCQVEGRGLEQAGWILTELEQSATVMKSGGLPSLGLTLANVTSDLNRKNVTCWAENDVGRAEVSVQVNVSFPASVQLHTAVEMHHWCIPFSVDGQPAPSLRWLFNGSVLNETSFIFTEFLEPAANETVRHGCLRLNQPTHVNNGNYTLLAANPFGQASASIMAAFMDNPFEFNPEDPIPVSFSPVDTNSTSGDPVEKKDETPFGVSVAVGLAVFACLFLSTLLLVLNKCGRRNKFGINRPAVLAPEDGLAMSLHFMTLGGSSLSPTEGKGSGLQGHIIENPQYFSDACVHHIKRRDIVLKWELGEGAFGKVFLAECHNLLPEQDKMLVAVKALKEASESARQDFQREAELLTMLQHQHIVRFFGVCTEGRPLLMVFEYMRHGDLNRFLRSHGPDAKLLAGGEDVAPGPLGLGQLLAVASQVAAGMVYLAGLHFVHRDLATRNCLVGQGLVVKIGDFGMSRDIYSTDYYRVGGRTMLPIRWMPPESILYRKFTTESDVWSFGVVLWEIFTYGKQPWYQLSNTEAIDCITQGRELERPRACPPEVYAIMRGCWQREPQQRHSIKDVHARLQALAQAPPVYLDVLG
T2 sequence (P04629 33-423): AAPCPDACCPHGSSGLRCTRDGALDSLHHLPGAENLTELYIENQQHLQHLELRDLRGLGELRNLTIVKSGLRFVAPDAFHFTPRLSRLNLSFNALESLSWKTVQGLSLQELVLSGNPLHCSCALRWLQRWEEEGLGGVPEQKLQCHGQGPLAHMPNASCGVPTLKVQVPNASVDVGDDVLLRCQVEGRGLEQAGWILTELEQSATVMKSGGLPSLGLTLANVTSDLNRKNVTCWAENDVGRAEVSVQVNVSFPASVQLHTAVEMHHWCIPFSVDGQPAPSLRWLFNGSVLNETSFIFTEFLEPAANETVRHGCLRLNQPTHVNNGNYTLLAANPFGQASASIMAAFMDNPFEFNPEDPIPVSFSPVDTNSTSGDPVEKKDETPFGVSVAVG

B1: muPHD49 (antibody, V domains shown)
VH: QVQLQQSGAELARPGASVKLSCKASGYTFSSYWMQWVKQRPGQGLEWIGAIYPGDDDTIYTQKFKGKATLTADKSSSTAYMQLSSLASEDSAVYYCARNYDYQAWFAYWGQGTLVTVSA
VL: QIVLTQSPALMSASPGEKVTMTCSASSSVSYMYWYQQKPRSSPKPWIYLTSNLASGVPARFSGSGSGTSYSLTISSMEAEDAATYYCQQWSSNPLTFGAGTKLELK
notes: Mouse hybridoma monoclonal antibody; also called muPHID49
Take B1: the “IC50 in NFAT assay” value in [1] was 0.404 nM. In addition, the figures for the EC50 in assay [2] and in [4] were 1.07 nM and 0.473 µg/mL, respectively. In addition, the Top turned out to be 1.94 OD450 in [2] and 173000 in assay [3]. Also, in assay [5], the “Top; inhibition of NGF-induced TrkA activation in TrkA-NFAT-bla CHO-K1 reporter cells” value (from here on “Top; inhibition”) was found to be 0.796 Response Ratio.

B2: muPHD50 (antibody, V domains shown)
VH: EVQLQQSGTVLARPGASVKMSCKASGYIFTSYWMHWVKQRPGQGLEWIGAIYPGDSDTNYNQKFKGKAKLTAVTSASTAYMELSSLTNEDSAVYYCTRYGNYAGYYHMDYWGQGTSVTVSS
VL: QIVLTQSPALMSASPGEKVTMTCSASSSVSYIYWYQQKPRSSPKPWIYLTSNLASGVPARFSGSGSGTSYSLTISSMEAEDAATYYCQQWSSNPLTFGAGTKLELK
notes: Mouse hybridoma monoclonal antibody; also called muPHID50
With B2, the EC50 in [2] is 0.428 nM; in [4], 0.326 µg/mL. The values for the Top in assay [2] and in [3] were 1.65 OD450 and 268000, respectively.

B3: control antibody pAb01 (antibody, V domains shown)
VH: EVQLVESGGGLVKPGGSLRLSCAASGFTFSGVSINWVRQAPGKGLEWVSSETTSSGTIYYADSVKGRFTISRDNAKNSLYLQMNSLRAEDTAVYYCARSYYYGMDVWGQGTTVTVS
VL: DIVMTQTPLSSPVTLGQPASISCRSSQSLVHRNGNTYLSWLQQRPGQPPRLLIYKISNRFSGVPDRFSGSGAGTDFTLKISRVEAEDVGVYYCMQARQFPLTFGGGTKVEIK
Consider B3, for which the binding result in [6] was “binds”.

B4: muPHD48 (antibody, V domains shown)
VH: EVQLQQSGTVLARPGASVKMSCKASGYSFTTYWMHWVKQRPGQGLEWIGTIYPGNSDSSNNQKFKGKAKLTAVTSASTAYMELSSLTNEDSAVYYCTRFYYEDWYFDVWGAGTTVTVSS
VL: QIVLTQSPAIMSASPGEKVTISCSASSSVSYMYWFQQKPGSSPKPWIYRTSNLASGVPARFSGSGSGTSYSLTISSMEAEDAATYYCQQYHSYPPTFGGGTKLEIK
notes: Mouse hybridoma monoclonal antibody
For the molecule B4, in assay [7], the “Top; inhibition” value was determined as 0.862 Response Ratio. For the same molecule, the “IC50 in NFAT antagonistic assay” value in assay [1] is 0.411 nM. For the same molecule, the EC50 in assay [2] came out at 0.37 nM; in assay [4], 0.341 µg/mL. Further, the Top in assay [2] came to 2.16 OD450; in assay [3], 239000.

B5: chi-PHD48 (the chimeric antibody derived from muPHD48) (antibody, V domains shown)
VH: EVQLQQSGTVLARPGASVKMSCKASGYSFTTYWMHWVKQRPGQGLEWIGTIYPGNSDSSNNQKFKGKAKLTAVTSASTAYMELSSLTNEDSAVYYCTRFYYEDWYFDVWGAGTTVTVSS
VL: QIVLTQSPAIMSASPGEKVTISCSASSSVSYMYWFQQKPGSSPKPWIYRTSNLASGVPARFSGSGSGTSYSLTISSMEAEDAATYYCQQYHSYPPTFGGGTKLEIK
notes: Chimeric: VH in the pCDNA3.4-hIgG4 vector and VL in the pCDNA3.4-hKappa vector (human IgG4 / human kappa constant regions)
For B5, in [7], the “IC50; inhibition of NGF-induced TrkA activation in TrkA-NFAT-bla CHO-K1 reporter cells” value is 1.12 nM and the “Top; inhibition” value worked out at 1.1 Response Ratio. In addition, a half-maximal effect in assay [8] (EC50) was put at 0.112 µg/mL. In [9], this molecule gave a Kd of 5.33 nM, a koff of 0.00114 s⁻¹ and a kon of 214000 M⁻¹ s⁻¹. For the same molecule, in assay [10], binding was characterised by a dissociation constant (Kd) of 2.8 nM, the koff is 0.000761 s⁻¹ and the kon is 272000 M⁻¹ s⁻¹. In assay [11], this molecule yielded an equilibrium dissociation constant (Kd) of 4.06 nM, a koff of 0.00069 s⁻¹ and a kon of 170000 M⁻¹ s⁻¹.

B6: PHD49-01 (humanized muPHD49) (antibody, human IgG4, V domains shown)
VH: QVQLVQSGAEVKKPGSSVKVSCKASGYTFSSYWMQWVRQAPGQGLEWIGAIYPGDDDTIYTQKFKGRATLTADKSTSTAYMELSSLRSEDTAVYYCARNYDYQAWFAYWGQGTLVTVSS
VL: DIQMTQSPSSLSASVGDRVTITCSASSSVSYMYWYQQKPGKAPKPWIYLTSNLASGVPSRFSGSGSGTDYTLTISSLQPEDFATYYCQQWSSNPLTFGQGTKLEIK
In the case of B6, the “IC50 in NFAT assay” value in [1] was approximately 0.604 nM. Besides, in assay [9], the Kd stood at 4.84 nM, the koff amounted to 0.00098 s⁻¹ and the kon came to 203000 M⁻¹ s⁻¹. In assay [12], this molecule yielded an EC50 of approximately 0.198 µg/mL. In assay [5], the “Top; inhibition” value is 1.1 Response Ratio.

B7: PHD48-01 (humanized muPHD48) (antibody, human IgG4, V domains shown)
VH: QVQLVQSGAEVKKPGASVKVSCKASGYSFTTYWMHWVRQAPGQGLEWIGTIYPGNSDSSNNQKFKGRATLTADTSTSTAYMELSSLRSEDTAVYYCTRFYYEDWYFDVWGQGTMVTVSS
VL: DIQMTQSPSSLSASVGDRVTITCSASSSVSYMYWFQQKPGKAPKPWIYRTSNLASGVPSRFSGSGSGTDYTLTISSLQPEDFATYYCQQYHSYPPTFGGGTKVEIK
As for B7, the “Top; inhibition” value in [7] worked out at 1.02 Response Ratio. Further, in assay [1], the “IC50 in NFAT antagonistic assay” value was approximately 0.345 nM. Further, the EC50 in [8] is approximately 0.142 µg/mL. For the same molecule, in [9], the affinity, expressed as Kd, was 3.07 nM; the koff was 0.000634 s⁻¹; the association rate constant (kon) was found to be 207000 M⁻¹ s⁻¹. In [10], this molecule displayed a Kd of 3.07 nM, a dissociation rate constant (koff) of 0.000634 s⁻¹ and a kon of 207000 M⁻¹ s⁻¹. In assay [11], this molecule showed a Kd of 2.34 nM, a koff of 0.000524 s⁻¹ and a kon of 224000 M⁻¹ s⁻¹.
